B1: Glutathione S-transferase YfcF wild type, P77544 (protein)
chain: MSKPAITLWSDAHFFSPYVLSAWVALQEKGLSFHIKTIDLDSGEHLQPTWQGYGQTRRVPLLQIDDFELSESSAIAEYLEDRFAPPTWERIYPLDLENRARARQIQAWLRSDLMPIREERPTDVVFAGAKKAPLTAEGKASAEKLFAMAEHLLVLGQPNLFGEWCIADTDLALMINRLVLHGDEVPERLVDYATFQWQRASVQRFIALSAKQSG
B2: Probable ketoamine kinase YniA wild type, P77739 (protein)
chain: MWQAISRLLSEQLGEGEIELRNELPGGEVHAAWHLRYAGHDFFVKCDERELLPGFTAEADQLELLSRSKTVTVPKVWAVGADRDYSFLVMDYLPPRPLDAHSAFILGQQIARLHQWSDQPQFGLDFDNALSTTPQPNTWQRRWSTFFAEQRIGWQLELAAEKGIAFGNIDAIVEHIQQRLASHQPQPSLLHGDLWSGNCALGPDGPYIFDPACYWGDRECDLAMLPLHTEQPPQIYDGYQSVSPLPADFLERQPVYQLYTLLNRARLFGGQHLVIAQQSLDRLLAA
B3: Selenide, water dikinase wild type, P16456 (protein)
chain: MSENSIRLTQYSHGAGCGCKISPKVLETILHSEQAKFVDPNLLVGNETRDDAAVYDLGNGTSVISTTDFFMPIVDNPFDFGRIAATNAISDIFAMGGKPIMAIAILGWPINKLSPEIAREVTEGGRYACRQAGIALAGGHSIDAPEPIFGLAVTGIVPTERVKKNSTAQAGCKLFLTKPLGIGVLTTAEKKSLLKPEHQGLATEVMCRMNIAGASFANIEGVKAMTDVTGFGLLGHLSEMCQGAGVQARVDYEAIPKLPGVEEYIKLGAVPGGTERNFASYGHLMGEMPREVRDLLCDPQTSGGLLLAVMPEAENEVKATAAEFGIELTAIGELVPARGGRAMVEIR
B4: Imidazole glycerol phosphate synthase subunit HisH wild type, P60595 (protein)
chain: MNVVILDTGCANLNSVKSAIARHGYEPKVSRDPDVVLLADKLFLPGVGTAQAAMDQVRERELFDLIKACTQPVLGICLGMQLLGRRSEESNGVDLLGIIDEDVPKMTDFGLPLPHMGWNRVYPQAGNRLFQGIEDGAYFYFVHSYAMPVNPWTIAQCNYGEPFTAAVQKDNFYGVQFHPERSGAAGAKLLKNFLEM
B5: Ribosome-binding ATPase YchF wild type, P0ABU2 (protein)
chain: MGFKCGIVGLPNVGKSTLFNALTKAGIEAANFPFCTIEPNTGVVPMPDPRLDQLAEIVKPQRTLPTTMEFVDIAGLVKGASKGEGLGNQFLTNIRETEAIGHVVRCFENDNIIHVSGKVNPADDIEVINTELALADLDTCERAIHRVQKKAKGGDKDAKAELAVLEKCLPQLENAGMLRALDLSAEEKAAIRYLSFLTLKPTMYIANVNEDGFENNPYLDQVREIAAKEGSVVVPVCAAVEADIAELDDEERDEFMQELGLEEPGLNRVIRAGYKLLNLQTYFTAGVKEVRAWTIPVGATAPQAAGKIHTDFEKGFIRAQTISFEDFITYKGEQGAKEAGKMRAEGKDYIVKDGDVMNFLFNV
B6: 5-amino-6-(5-phospho-D-ribitylamino)uracil phosphatase YbjI wild type, P75809 (protein)
chain: MSIKLIAVDMDGTFLSDQKTYNRERFMAQYQQMKAQGIRFVVASGNQYYQLISFFPEIANEIAFVAENGGWVVSEGKDVFNGELSKDAFATVVEHLLTRPEVEIIACGKNSAYTLKKYDDAMKTVAEMYYHRLEYVDNFDNLEDIFFKFGLNLSDELIPQVQKALHEAIGDIMVSVHTGNGSIDLIIPGVHKANGLRQLQKLWGIDDSEVVVFGDGGNDIEMLRQAGFSFAMENAGSAVVAAAKYRAGSNNREGVLDVIDKVLKHEAPFDQ
B7: Fructose-1,6-bisphosphatase class 1 wild type, P0A993 (protein)
chain: MKTLGEFIVEKQHEFSHATGELTALLSAIKLGAKIIHRDINKAGLVDILGASGAENVQGEVQQKLDLFANEKLKAALKARDIVAGIASEEEDEIVVFEGCEHAKYVVLMDPLDGSSNIDVNVSVGTIFSIYRRVTPVGTPVTEEDFLQPGNKQVAAGYVVYGSSTMLVYTTGCGVHAFTYDPSLGVFCLCQERMRFPEKGKTYSINEGNYIKFPNGVKKYIKFCQEEDKSTNRPYTSRYIGSLVADFHRNLLKGGIYLYPSTASHPDGKLRLLYECNPMAFLAEQAGGKASDGKERILDIIPETLHQRRSFFVGNDHMVEDVERFIREFPDA
B8: Exodeoxyribonuclease III wild type, P09030 (protein)
chain: MKFVSFNINGLRARPHQLEAIVEKHQPDVIGLQETKVHDDMFPLEEVAKLGYNVFYHGQKGHYGVALLTKETPIAVRRGFPGDDEEAQRRIIMAEIPSLLGNVTVINGYFPQGESRDHPIKFPAKAQFYQNLQNYLETELKRDNPVLIMGDMNISPTDLDIGIGEENRKRWLRTGKCSFLPEEREWMDRLMSWGLVDTFRHANPQTADRFSWFDYRSKGFDDNRGLRIDLLLASQPLAECCVETGIDYEIRSMEKPSDHAPVWATFRR
B9: Phospho-2-dehydro-3-deoxyheptonate aldolase, Phe-sensitive wild type, P0AB91 (protein)
chain: MNYQNDDLRIKEIKELLPPVALLEKFPATENAANTVAHARKAIHKILKGNDDRLLVVIGPCSIHDPVAAKEYATRLLALREELKDELEIVMRVYFEKPRTTVGWKGLINDPHMDNSFQINDGLRIARKLLLDINDSGLPAAGEFLDMITPQYLADLMSWGAIGARTTESQVHRELASGLSCPVGFKNGTDGTIKVAIDAINAAGAPHCFLSVTKWGHSAIVNTSGNGDCHIILRGGKEPNYSAKHVAEVKEGLNKAGLPAQVMIDFSHANSSKQFKKQMDVCADVCQQIAGGEKAIIGVMVESHLVEGNQSLESGEPLAYGKSITDACIGWEDTDALLRQLANAVKARRG

Details: Escherichia coli (strain K12); pH 7.5; Thermal; Intensity; HEPES 20mM; transition: 2; whole UniProt chain shown

Protein	Tm [°C]
B1	41.6
B2	40.4
B3	41.7
B4	42.4
B5	41.3
B6	41.2
B7	42.4
B8	42.6
B9	41.7
